From paper PMC6614801, “Structural basis for the function of SuhB as a transcription factor in ribosomal RNA synthesis” (Nucleic Acids Research, 2019)
Where a chain is given by its changes, count along the chain named.

T1: SuhB^K108A (E. coli, UniProt P0ADG4 1-267, K108A)
T1 sequence (looked up): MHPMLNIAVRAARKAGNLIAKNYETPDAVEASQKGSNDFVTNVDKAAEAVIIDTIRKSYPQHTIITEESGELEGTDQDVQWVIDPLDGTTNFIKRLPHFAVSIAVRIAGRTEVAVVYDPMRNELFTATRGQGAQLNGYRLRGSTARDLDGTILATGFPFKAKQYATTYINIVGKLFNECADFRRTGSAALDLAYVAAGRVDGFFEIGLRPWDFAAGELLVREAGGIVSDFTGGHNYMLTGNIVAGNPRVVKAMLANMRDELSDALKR

B1: SuhB (inositol mono-phosphatase SuhB), wild type (natural protein, E. coli, UniProt P0ADG4 1-267, looked up)
chain: T1 sequence (looked up) with A108K
notes: Inositol mono-phosphatase SuhB of E. coli, PCR-amplified from E. coli (DH5α) genomic DNA, full length; Dimer by SEC-MALS and in both crystal structures; also called wt SuhB; SuhB^II; source: E. coli BL21(DE3)pLysS, purified (Ni-NTA, TEV digestion, SEC)
B2: N-terminally His6-tagged NusA^AR2 (domain or fragment, E. coli, UniProt P0AFF6 427-495, looked up)
chain: DNKPADDLLNLEGVDRDLAFKLAARGVCTLEDLAEQGIDDLADIEGLTDEKAGALIMAARNICWFGDEA
notes: C-terminal acidic repeat 2 (AR2) domain of E. coli NusA, residues 427–495; Same construct as m3, with the His6 tag kept for capture on the NTA chip in SPR; also called wt AR2; source: recombinant (pETM-11), purified via the same protocol as full-length NusA (19); not shown: His6, N-terminal, kept
B3: SuhB^KL251/254AA (natural protein, E. coli, UniProt P0ADG4 1-267, looked up)
chain: T1 sequence (looked up) with A108K, K251A, L254A
notes: also called KL/AA

Columns and labels:
Details in all cases: both partners purified
NusA, full length = target: T2, NusA, full length (E. coli, UniProt P0AFF6 1-495); assay: SEC; analytical SEC of mixtures of proteins only; Superdex 200 Increase 3.2/300; 20 μM largest component, 25 μM all smaller components; 20 mM HEPES–NaOH pH 7.5, 50 mM NaCl, 1 mM DTT; incubated at room temperature for 15 min; fractions on SDS-PAGE
T2 construct: Transcription factor NusA of E. coli, full length; also called NusA^FL; N-utilization substance A; source: recombinant, produced and purified as described previously (18,19)

[1] = target: B1; assay: SPR; Biacore, Sensor Chip NTA, 20°C; N-terminally His6-tagged NusA^AR2 immobilised; single cycle kinetics with SuhB variants at 25, 50, 100, 150 and 200 nM; 20 mM HEPES–NaOH pH 7.5, 50 mM NaCl, 1 mM DTT
SuhB^K108A = target: T1, SuhB^K108A; assay: as above

| Binder | binding result (NusA, full length) | Kd [1] [nM] | Kd (SuhB^K108A) [nM] |
| --- | --- | --- | --- |
| B1 | binds |  |  |
| B2 |  | 94 | 435 |
| B3 | binds |  |  |
